Laboratory results taken from article PMC9097488.

Legend:
[1] = molecular target: Crenotalea thermophila TIR-APAZ after removal of the 6xHis-MBP tag (Crenotalea thermophila); assay: SEC-MALS
[2] = molecular target: MapSPARTA complex (heterodimer of MapAgo and MapTIR-APAZ) (Maribacter polysiphoniae); assay: SEC-MALS

**Q.** For “Crenotalea thermophila short pAgo (natural protein)”, which stoichiometry N [1] is on record?
**A.** Its stoichiometry N is 1.

**Q.** “MapSPARTA complex (heterodimer of MapAgo and MapTIR-APAZ)” was tested. Which stoichiometry N [2] did it give?
**A.** The stoichiometry N was 4.
